Assay [1] concerns the target recombinant human laminin-511 (α5β1γ1) (human) (UniProt O15230).
Assay [2] has as its target recombinant human laminin-521 (α5β2γ1) (human) (UniProt O15230).
Assay [3] concerns the target recombinant human laminin-511 (α5β1γ1) (human) (UniProt O15230). The source holds these as a separate data set.
For assay [4], the target named is recombinant human laminin-521 (α5β2γ1) (human) (UniProt O15230). The source holds these as a separate data set.

Consider “recombinant human α3β1 integrin (from UniProt P26006 33-1051; P05556 21-728) (receptor)”, for which, in assay [1], the adhesion of BE melanoma cells to wells coated with rhLM511 (20 µg/ml), OD is 1.65 OD; the adhesion of KG1C glioma cells to wells coated with rhLM511 (20 µg/ml), OD came to 1.48 OD; the adhesion of MDA-MB-231 breast carcinoma cells to wells coated with rhLM511 (20 µg/ml), OD worked out at 1.82 OD. In addition, in assay [2], the adhesion of BE melanoma cells to wells coated with rhLM521 (20 µg/ml), OD came out at 1.56 OD; the adhesion of KG1C glioma cells to wells coated with rhLM521 (20 µg/ml), OD was 1.39 OD; the adhesion of MDA-MB-231 breast carcinoma cells to wells coated with rhLM521 (20 µg/ml), OD was found to be 1.85 OD. Further, in assay [3], the migration of carcinoma cells through membranes coated with rhLM511, cells/field was found to be 190 cells/field; the migration of glioma cells through membranes coated with rhLM511, cells/field worked out at 161 cells/field; the migration of melanoma cells through membranes coated with rhLM511, cells/field worked out at 88 cells/field. Moreover, in assay [4], the migration of carcinoma cells through membranes coated with rhLM521, cells/field stood at 198 cells/field; the migration of glioma cells through membranes coated with rhLM521, cells/field was found to be 174 cells/field; the migration of melanoma cells through membranes coated with rhLM521, cells/field stood at 203 cells/field.
